Experimental data published in article PMC6155142, “OCP–FRP protein complex topologies suggest a mechanism for controlling high light tolerance in cyanobacteria” (Nature Communications, 2018).
Several values for one entry are separate records, joined by “and”; a condition that tells them apart may be missing. Equal entries are not always repeated. Values belong to the molecule of their own block, whether it stands above or below them.

B5: ∆NTE^O, orange form of Synechocystis OCP lacking the N-terminal extension (residues 1–20) (domain or fragment)
chain: VPATIARFSQLNAEDQLALIWFAYLEMGKTLTIAAPGAASMQLAENALKEIQAMGPLQQTQAMCDLANRADTPLCRTYASWSPNIKLGFWYRLGELMEQGFVAPIPAGYQLSANANAVLATIQGLESGQQITVLRNAVVDMGFTAGKDGKRIAEPVVPPQDTASRTKVSIEGVTNATVLNYMDNLNANDFDTLIELFTSDGALQPPFQRPIVGKENVLRFFREECQNLKLIPERGVTEPAEDGFTQIKVTGKVQTPWFGGNVGMNIAWRFLLNPEGKIFFVAIDLLASPKELLNFAR

Assays:
[1] = target: ∆NTE^O, orange form of Synechocystis OCP lacking the N-terminal extension (residues 1–20) (Synechocystis sp. PCC 6803) (UniProt P74102); test: cross-linking; FRP species, ∆NTE^O or their mixtures in 20 mM Hepes-NaOH pH 7.5, 150 mM NaCl, 0.1 mM EDTA; 0.1% glutaraldehyde, 25 min, room temperature; 15% SDS-PAGE (no reducing agents with oxFRPcc); details: scale: FRP chains per OCP
[2] = target: OCP(O) (Synechocystis sp.) (UniProt P74102); details: cited from earlier work
[3] = target: the molecule itself; test: SEC; FRP species alone, 1–40 µM per monomer, pre-incubated at least 20 min at room temperature; Superdex 200 Increase 10/300; 20 mM Tris-HCl pH 7.6, 150 mM NaCl, 0.1 mM EDTA, 3 mM βME (reducing); dimer to monomers
[4] = target: T1, OCP–F299C mutant of Synechocystis OCP (Synechocystis sp. PCC 6803, UniProt P74102 1-317, F299C); test: cell-based or functional assay
T1 sequence (looked up): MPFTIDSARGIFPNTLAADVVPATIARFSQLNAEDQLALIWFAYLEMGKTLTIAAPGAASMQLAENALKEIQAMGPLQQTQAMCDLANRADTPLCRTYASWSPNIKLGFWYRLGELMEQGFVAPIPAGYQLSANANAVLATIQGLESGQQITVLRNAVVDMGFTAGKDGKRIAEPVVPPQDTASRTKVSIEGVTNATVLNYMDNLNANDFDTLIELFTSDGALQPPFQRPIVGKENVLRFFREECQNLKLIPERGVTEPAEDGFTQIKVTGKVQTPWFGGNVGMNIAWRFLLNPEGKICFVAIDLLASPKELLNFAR

[5] = target: T2, ∆NTE^O, orange form of Synechocystis OCP lacking the N-terminal extension (residues 1–20) (Synechocystis sp. PCC 6803, UniProt P74102 21-317); test: cross-linking; FRP species, ∆NTE^O or their mixtures in 20 mM Hepes-NaOH pH 7.5, 150 mM NaCl, 0.1 mM EDTA; 0.1% glutaraldehyde, 25 min, room temperature; 15% SDS-PAGE (no reducing agents with oxFRPcc); details: both partners purified
T2 construct: orange carotenoid protein (OCP) of Synechocystis sp; PCC 6803 without the NTE (residues 1–20); also called ∆NTE^O monomer
T2 sequence (looked up): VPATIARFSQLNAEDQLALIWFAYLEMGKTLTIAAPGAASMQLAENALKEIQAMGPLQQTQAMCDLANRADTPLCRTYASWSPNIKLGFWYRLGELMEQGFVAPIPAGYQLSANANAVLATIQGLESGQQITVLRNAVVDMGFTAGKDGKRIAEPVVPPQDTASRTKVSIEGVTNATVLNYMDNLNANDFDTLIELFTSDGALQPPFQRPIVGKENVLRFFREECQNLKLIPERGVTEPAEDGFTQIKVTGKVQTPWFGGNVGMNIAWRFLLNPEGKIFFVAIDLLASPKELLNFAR

[6] = target: B5
[7] = target: T2, ∆NTE^O, orange form of Synechocystis …; test: SEC; redFRPcc or FRP-L49E (50 µM) pre-incubated with OCP^AA (37 µM), ∆NTE^O (6 µM) or COCP (8 µM); Superdex 200 Increase 10/300; 280 nm and carotenoid-specific absorbance; details: both partners purified
[8] = target: T3, OCP^Y201A/W288A, constantly active mutant of Synechocystis orange carotenoid protein (Synechocystis sp. PCC 6803, UniProt P74102 1-317, Y201A | W288A); test: as above; details: both partners purified
T3 construct: orange carotenoid protein (OCP) of Synechocystis sp; PCC 6803 with Y201A and W288A; also called OCP^AA
T3 sequence (looked up): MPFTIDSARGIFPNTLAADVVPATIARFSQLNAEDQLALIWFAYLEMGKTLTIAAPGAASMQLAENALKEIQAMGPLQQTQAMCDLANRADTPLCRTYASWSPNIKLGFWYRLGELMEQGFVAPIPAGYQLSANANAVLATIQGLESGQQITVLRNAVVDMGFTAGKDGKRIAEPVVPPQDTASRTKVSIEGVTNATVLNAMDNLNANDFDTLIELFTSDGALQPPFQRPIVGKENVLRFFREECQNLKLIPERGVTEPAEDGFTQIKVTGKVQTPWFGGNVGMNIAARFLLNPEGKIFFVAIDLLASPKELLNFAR

[9] = target: T4, COCP, individual C-terminal domain of Synechocystis OCP (amino acids 165–317) (Synechocystis sp. PCC 6803, UniProt P74102 165-317); test: as above; details: both partners purified
T4 construct: C-terminal domain of the orange carotenoid protein (OCP) of Synechocystis sp; PCC 6803, amino acids 165–317; also called CTD; individual CTD
T4 sequence (looked up): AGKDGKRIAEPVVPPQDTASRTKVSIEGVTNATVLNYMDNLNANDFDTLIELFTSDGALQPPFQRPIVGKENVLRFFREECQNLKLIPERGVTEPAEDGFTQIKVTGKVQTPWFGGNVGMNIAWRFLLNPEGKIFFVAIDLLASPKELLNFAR

[10] = target: T1, OCP–F299C mutant of Synechocystis OCP; test: cross-linking; disulfide trapping: OCP–F299C apoform mixed with FRP–F76C or FRP–K102C, oxidized in the dark by dialysis at 4 °C against GSH/GSSG (or 30–60 min with 10–50 mM H2O2); SDS-PAGE with or without 20 mM βME; details: both partners purified
[11] = target: the molecule itself; test: SAXS; oxFRPcc alone (1.7 mg ml^−1) and the ∆NTE^O–oxFRPcc complex (2.41 mg ml^−1, ~40 µM); batch mode, 10 °C, SEC buffer with 3% glycerol, no reducing agents
[12] = target: T2, ∆NTE^O, orange form of Synechocystis …; test: as above; details: both partners purified
[13] = target: T5, oxidized FRPcc (L33C/I43C mutant of Synechocystis FRP), disulfide-trapped dimer (Synechocystis, UniProt P74103 1-109, L33C | I43C, intersubunit disulfide bridges between C33 and C43)
T5 sequence: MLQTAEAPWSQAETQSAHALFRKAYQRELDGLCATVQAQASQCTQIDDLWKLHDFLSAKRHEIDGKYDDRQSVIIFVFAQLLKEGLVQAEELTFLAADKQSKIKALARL

Molecule: FRP (from UniProt P74103)
Kd [2]: 35000 nM

B1: wild-type Synechocystis fluorescence recovery protein (FRP), His6-tagged, residues 1–109 (natural protein, UniProt P74103 1-109, looked up)
chain: MLQTAEAPWSQAETQSAHALFRKAYQRELDGLLATVQAQASQITQIDDLWKLHDFLSAKRHEIDGKYDDRQSVIIFVFAQLLKEGLVQAEELTFLAADKQSKIKALARL
notes: fluorescence recovery protein (FRP) of Synechocystis, residues 1–109; cloned into pQE81L by BamHI/HindIII; Uncleavable tag; Dissociable dimer; also called FRPwt; wild-type FRP; not shown: His6, N-terminal, kept
stoichiometry N [3]: 2 | acceleration of the R–O conversion of photoactivated OCP–F299C at 25 °C [4]: ~20 fold | stoichiometry N [5]: 1 FRP chains per OCP (printed as OCP:FRP 1:1) and 2 FRP chains per OCP (printed as OCP:FRP 1:2) | Kd [6]: 190 nM

Molecule: B5
Kd [13]: 220 nM

Continued, in another order:

stoichiometry N [1]: 1 and 2
Molecule: FRP homolog from Anabaena variabilis (natural protein)

binding result [7]: binds | binding result [8]: binds | binding result [9]: binds
B2: FRPcc (L33C/I43C mutant of Synechocystis FRP) under reducing conditions (natural protein, UniProt P74103 1-109, looked up)
chain: MLQTAEAPWSQAETQSAHALFRKAYQRELDGLCATVQAQASQCTQIDDLWKLHDFLSAKRHEIDGKYDDRQSVIIFVFAQLLKEGLVQAEELTFLAADKQSKIKALARL
notes: fluorescence recovery protein (FRP) of Synechocystis, residues 1–109, with L33C and I43C; made from the His6-tagged wild-type template; Cysteines reduced; dissociable dimer (dimeric above 10 µM load, partly dissociates on dilution); also called redFRPcc; not shown: His6, N-terminal, kept
stoichiometry N [3]: 2

stoichiometry N [10]: 1 FRP chains per OCP (printed as 1:1)
B3: FRP–K102C mutant of Synechocystis FRP (natural protein, UniProt P74103 1-109, looked up)
chain: MLQTAEAPWSQAETQSAHALFRKAYQRELDGLLATVQAQASQITQIDDLWKLHDFLSAKRHEIDGKYDDRQSVIIFVFAQLLKEGLVQAEELTFLAADKQSCIKALARL
notes: fluorescence recovery protein (FRP) of Synechocystis with K102C, from M1 (N-terminus after cleavage of the tag: GPDPATM1LQ…); the wild-type construct is residues 1–109; pQE81M vector; the His6 tag is cleavable by 3C protease and leaves GPDPAT before M1

stoichiometry N [12]: 2 FRP chains per OCP (printed as 2:1)
B4: oxidized FRPcc (L33C/I43C mutant of Synechocystis FRP), disulfide-trapped dimer (natural protein, UniProt P74103 1-109, looked up)
chain: MLQTAEAPWSQAETQSAHALFRKAYQRELDGLCATVQAQASQCTQIDDLWKLHDFLSAKRHEIDGKYDDRQSVIIFVFAQLLKEGLVQAEELTFLAADKQSKIKALARL
modifications: intersubunit disulfide bridges between C33 and C43
notes: fluorescence recovery protein (FRP) of Synechocystis, residues 1–109, with L33C and I43C; made from the His6-tagged wild-type template; Same polypeptide as m3, but covalently fixed as a dimer that cannot monomerize; 22 N-terminal residues of the construct are absent from 4JDX; also called oxFRPcc; oxFRPcc dimer; source: E. coli T7 SHuffle express, purified in the absence of reducing agents, …
stoichiometry N [5]: 2 FRP chains per OCP (printed as OCP:FRP 1:2) and 1 FRP chains per OCP (printed as OCP:FRP 2:2) | stoichiometry N [11]: 2
